Laboratory results: the supplement of paper PMC9112550, “Optimization of the antimicrobial peptide Bac7 by deep mutational scanning” (BMC Biology, 2022)

system: Escherichia coli TOP10; assay: shrunken log2 fold change of peptide-encoding DNA abundance (4.5 h post-induction vs induction); higher = less antimicrobial activity (less host growth inhibition); details: time post-induction: 4.5 h; library: site-saturation at positions 5, 18, 19, 20
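Also: peptides expressed intracellularly from a pBAD plasmid library in pooled LB shake-flask culture, induced with 0.3% L-arabinose, DNA abundance read by NGS, three biological replicates, DESeq2 with apeglm shrinkage.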

| Sequence | shrunken log2 fold change |
| --- | --- |
| RRIRHRPPRLPRPRPRPNYRPRP | -0.103 |
| RRIRHRPPRLPRPRPRPPARPRP | 1.66 |
| RRIRHRPPRLPRPRPRPPCHPRP | -0.253 |
| RRIRHRPPRLPRPRPRPPCIPRP | 0.00475 |
| RRIRHRPPRLPRPRPRPPDTPRP | -0.071 |
| RRIRHRPPRLPRPRPRPPEYPRP | 0.0328 |
| RRIRHRPPRLPRPRPRPPGMPRP | 0.0769 |
| RRIRHRPPRLPRPRPRPPGQPRP | 0.0303 |
| RRIRHRPPRLPRPRPRPPHVPRP | 0.16 |
| RRIRHRPPRLPRPRPRPPIPPRP | -0.11 |
| RRIRHRPPRLPRPRPRPPKIPRP | 0.282 |
| RRIRHRPPRLPRPRPRPPLQPRP | -0.127 |
| RRIRHRPPRLPRPRPRPPMKPRP | -0.278 |
| RRIRHRPPRLPRPRPRPPMMPRP | 0.03 |
| RRIRHRPPRLPRPRPRPPQSPRP | 0.193 |
| RRIRHRPPRLPRPRPRPPSSPRP | -0.00863 |
| RRIRHRPPRLPRPRPRPPWCPRP | 0.0341 |
| RRIRHRPPRLPRPRPRPPWVPRP | -0.101 |
| RRIRHRPPRLPRPRPRPPYYPRP | -0.296 |
| RRIRHRPPRLPRPRPRPQACPRP | -0.208 |
| RRIRHRPPRLPRPRPRPQAEPRP | -0.0254 |
| RRIRHRPPRLPRPRPRPQCIPRP | -0.235 |
| RRIRHRPPRLPRPRPRPQDQPRP | 0.0969 |
| RRIRHRPPRLPRPRPRPQDYPRP | -0.101 |
| RRIRHRPPRLPRPRPRPQEYPRP | -0.128 |

| Sequence | shrunken log2 fold change |
| --- | --- |
| RRIRHRPPRLPRPRPRPQFWPRP | 0.115 |
| RRIRHRPPRLPRPRPRPQGEPRP | -0.171 |
| RRIRHRPPRLPRPRPRPQHHPRP | -0.87 |
| RRIRHRPPRLPRPRPRPQHNPRP | 0.22 |
| RRIRHRPPRLPRPRPRPQKFPRP | -0.0301 |
| RRIRHRPPRLPRPRPRPQLGPRP | 0.375 |
| RRIRHRPPRLPRPRPRPQMYPRP | -0.0219 |
| RRIRHRPPRLPRPRPRPQNMPRP | -0.731 |
| RRIRHRPPRLPRPRPRPQNYPRP | -1.11 |
| RRIRHRPPRLPRPRPRPQPQPRP | -0.00539 |
| RRIRHRPPRLPRPRPRPQPTPRP | -0.18 |
| RRIRHRPPRLPRPRPRPQQAPRP | -0.00588 |
| RRIRHRPPRLPRPRPRPQRSPRP | 0.0449 |
| RRIRHRPPRLPRPRPRPQTEPRP | -0.102 |
| RRIRHRPPRLPRPRPRPQVLPRP | -0.0535 |
| RRIRHRPPRLPRPRPRPQWNPRP | -0.281 |
| RRIRHRPPRLPRPRPRPQYCPRP | -0.00186 |
| RRIRHRPPRLPRPRPRPQYRPRP | -0.0967 |
| RRIRHRPPRLPRPRPRPRCFPRP | -0.143 |
| RRIRHRPPRLPRPRPRPRCIPRP | -0.0991 |
| RRIRHRPPRLPRPRPRPRCNPRP | -0.331 |
| RRIRHRPPRLPRPRPRPRDLPRP | -0.0495 |
| RRIRHRPPRLPRPRPRPRECPRP | 0.0559 |
| RRIRHRPPRLPRPRPRPREIPRP | 0.0735 |
| RRIRHRPPRLPRPRPRPRENPRP | 0.0589 |

| Sequence | shrunken log2 fold change |
| --- | --- |
| RRIRHRPPRLPRPRPRPRFDPRP | -0.163 |
| RRIRHRPPRLPRPRPRPRGNPRP | 0.174 |
| RRIRHRPPRLPRPRPRPRGWPRP | 0.629 |
| RRIRHRPPRLPRPRPRPRHTPRP | -0.0794 |
| RRIRHRPPRLPRPRPRPRIEPRP | 0.15 |
| RRIRHRPPRLPRPRPRPRIVPRP | 0.00411 |
| RRIRHRPPRLPRPRPRPRKCPRP | -0.116 |
| RRIRHRPPRLPRPRPRPRKQPRP | 0.11 |
| RRIRHRPPRLPRPRPRPRMPPRP | 0.133 |
| RRIRHRPPRLPRPRPRPRPDPRP | 0.179 |
| RRIRHRPPRLPRPRPRPRQKPRP | -0.01 |
| RRIRHRPPRLPRPRPRPRRCPRP | 0.166 |
| RRIRHRPPRLPRPRPRPRRSPRP | 0.0555 |
| RRIRHRPPRLPRPRPRPRSAPRP | 0.356 |
| RRIRHRPPRLPRPRPRPRSNPRP | -0.253 |
| RRIRHRPPRLPRPRPRPRSPPRP | 0.243 |
| RRIRHRPPRLPRPRPRPRWWPRP | 0.00789 |
| RRIRHRPPRLPRPRPRPRYNPRP | -0.591 |
| RRIRHRPPRLPRPRPRPRYYPRP | -0.332 |
| RRIRHRPPRLPRPRPRPSAHPRP | -0.139 |
| RRIRHRPPRLPRPRPRPSAQPRP | 0.127 |
| RRIRHRPPRLPRPRPRPSASPRP | -0.0379 |
| RRIRHRPPRLPRPRPRPSCEPRP | -0.569 |
| RRIRHRPPRLPRPRPRPSDHPRP | -0.548 |
| RRIRHRPPRLPRPRPRPSDNPRP | 0.129 |
